Assay results as given in patent US10335489B2, “Injectable solution at pH 7 comprising at least one basal insulin the pi of which is between 5.8 and 8.5 and a substituted co-polyamino acid” (ADOCIA, priority 2012, dated 2019).

Assay: Precipitation of insulin glargine on addition to PBS/BSA mixture simulating the subcutaneous medium, centrifugation, RP-HPLC assay of supernatant
Assay type: physicochemical
Details: co-polyamino acid 1/insulin glargine/prandial insulin 75/25 composition added to 2 ml PBS/BSA
Description: The PBS/BSA mixture simulates the composition of the subcutaneous medium.
Centrifugation at 4000 rpm is carried out in order to separate the precipitate from the supernatant.
(§1) The PBS/BSA mixture simulates the composition of the subcutaneous medium. A precipitate appears.
as §1
This composition is added to 2 ml of PBS containing 20 mg/ml of BSA (bovine serum albumin). The PBS/BSA mixture simulates the composition of the subcutaneous medium. A precipitate appears. Centrifugation at 4000 rpm is carried out in order to separate the precipitate from the supernatant. […]
The PBS/BSA mixture simulates the composition of the subcutaneous medium. A precipitate appears. Centrifugation at 4000 rpm is carried out in order to separate the precipitate from the supernatant.
as §1

In the case of “Human insulin (ActRapid ®): commercial solution of human insulin at 100 IU/ml”, the “Precipitation of insulin glargine” value is reported as “yes”.
